Measured values: article PMC5766548
Values belong to the substance of their own block, whether it stands above or below them.

Legend:
enhanced GFP (EGFP) = test: AUC; sedimentation velocity; 0.33, 0.65 and 1.3 mg mL^-1; 20 mM Tris pH 7.5, 150 mM NaCl; 50,000 rpm, 20 °C; absorbance at 280 nm; c(s) distributions and weight average sedimentation coefficients against concentration
[1] = target: superfolder GFP (sfGFP) [GFP: P42212]; test: SEC-SAXS; in-line Superdex 75 10/300 GL; 50 µL loaded at approximately 50 mg mL^-1 (> approximately 10 mg mL^-1 after dilution on the column); 25 mM Tris pH 7.5, 150 mM NaCl; profiles compared with CRYSOL curves of monomer and dimer of the usGFP crystal structure
[2] = target: ultra-stable GFP (usGFP) [GFP: P42212]; test: as above

stoichiometry N (enhanced GFP (EGFP)): 2
Substance: enhanced GFP (EGFP)

stoichiometry N [1]: 2
Substance: superfolder GFP (sfGFP) (from UniProt P42212 1-238)

stoichiometry N [2]: 2
Substance: ultra-stable GFP (usGFP) (from UniProt P42212 1-238)
